Assay results taken from PMC8263589, “The role of membrane destabilisation and protein dynamics in BAM catalysed OMP folding” (Nature Communications, 2021).

Experiments:
[1] = molecular target: BamA, as the subunit of WT BAM (Escherichia coli K-12); assay: cryo-EM structure; purified BAM (WT or BAM-LL) mixed with Fab1 in DDM micelles, pH 8.0, 150 mM NaCl; WT BAM with a 2-fold molar excess of Fab1, complex isolated on Superdex 200; BAM-LL and Fab1 mixed 1:1; conditions: both partners purified
[2] = molecular target: WT BAM complex (BamABCDE-His6) (Escherichia coli K-12); assay: as above; conditions: both partners purified

B1: Fab1, anti-BamA monoclonal antibody Fab fragment (Fab, V domains shown)
VH: EVQLVESGGGLVQPGRSLKLSCVASRFTFSNYGMNWIRQTPGKGLEWVAYIGSTSSHIYYAETVKGRFTISRDNAKNTLYLQMTGLRSEDTALYYCVGHVRKLGAFFDYWGQGAMVTVSS
VL: DIQMTQSPASLSASLGETVTIECRASEDIHSRLAWYQQKPGKSPQLLIYNANSLHTGVPSRFSGSGSGTQFSLKINSLQSEDVASYFCLQYYNYPPYTFGAGAKLELR
notes: heavy chain of Fab1 in the crystal structure deposited here (PDB 7BM5); light chain of Fab1 in the crystal structure deposited here (PDB 7BM5); also called bactericidal Fab fragment; Fab of MAB1; source: E. coli, purified (Protein G, SP Sepharose, Superdex 75)
- binding result [1]: binds
- binding result [2]: binds
